Test results as given in US20220002743.
Positions count from the first letter of the chain named. Numbers in names are those of the source.

B1: wild type protein kinase Nitab4.5_0003679 g0060.2 (SEQ ID No. 3) (protein)
chain: MAIEDNESCGSRVVDSATTSGRHQRKKLEVYNEVLRRLKESNNVEALEPGFDDELWAHFNRLPTRYAIDVNVERAEDVLTHKRLLHLAHVPANRPAFDVRLVQVASVPDGNLRDSFHSSFAKKEVSRSVHPPPAFGSSPNLEALACEAIKSEVQDEDTAAPCANFSRPMHEITFSTDDKPKLLSQLTSLLAELGLNIQEAHAFSTVDGYSLDVFVVDGWPYEEVVRLRTALEREILRNEKSWPSPSQSFIKQEQDLIKREFDHLTIPFDGIDVWEIDHQLLKFEYKIASGSYGDLYKGTYCSQDVAIKILKSERLNTELQTEFAQEVYIMRKVRHKNVVQFIGACTRPPNLCIVTEYMSGGSVYDYLHKRKGSFKLPTLLKVAIDVAKGMNYLHQNNIIHRDLKAANLLMDENEVIKVADFGVARVKAQTGVMTAETGTYRWMAPEVIEHKPYDHKADVFSFGVVLWELLTGKLPYEYLTPLQAAIGVVQKGLRPTIPKHTPPRLAELLETCWQQDPTSRPDFSEIVDILQQIAKEVGDERADRCKEKSAGGFFSALRRGHH
B2: K308M variant of protein kinase Nitab4.5_0003679 g0060.2 (SEQ ID No. 3) (protein)
chain: B1 chain with K308M

Target: myelin basic protein
Sequence (P02687 whole entry): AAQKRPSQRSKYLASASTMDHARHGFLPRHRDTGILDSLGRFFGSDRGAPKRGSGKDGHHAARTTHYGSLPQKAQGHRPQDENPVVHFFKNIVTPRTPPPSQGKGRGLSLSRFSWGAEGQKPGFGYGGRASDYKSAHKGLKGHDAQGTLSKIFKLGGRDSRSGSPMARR

Row | Protein | in vitro kinase reaction; phosphorylation detected by Pro-Q Diamond phosphoprotein gel stain after SDS-PAGE
1 | B1 | K308 (i.e. the wild type SEQ ID No. 3) is an active protein kinase
2 | B2 | the variant K308M is not an active kinase
